Experimental findings from publication PMC2895429 are described below.

The target of this test is cardiac ryanodine receptor (RyR2) in permeabilized rat ventricular myocytes (rat (endogenous in ventricular myocytes)) (UniProt B0LPN4).
Sequence of UniProt B0LPN4 (B0LPN4 whole entry): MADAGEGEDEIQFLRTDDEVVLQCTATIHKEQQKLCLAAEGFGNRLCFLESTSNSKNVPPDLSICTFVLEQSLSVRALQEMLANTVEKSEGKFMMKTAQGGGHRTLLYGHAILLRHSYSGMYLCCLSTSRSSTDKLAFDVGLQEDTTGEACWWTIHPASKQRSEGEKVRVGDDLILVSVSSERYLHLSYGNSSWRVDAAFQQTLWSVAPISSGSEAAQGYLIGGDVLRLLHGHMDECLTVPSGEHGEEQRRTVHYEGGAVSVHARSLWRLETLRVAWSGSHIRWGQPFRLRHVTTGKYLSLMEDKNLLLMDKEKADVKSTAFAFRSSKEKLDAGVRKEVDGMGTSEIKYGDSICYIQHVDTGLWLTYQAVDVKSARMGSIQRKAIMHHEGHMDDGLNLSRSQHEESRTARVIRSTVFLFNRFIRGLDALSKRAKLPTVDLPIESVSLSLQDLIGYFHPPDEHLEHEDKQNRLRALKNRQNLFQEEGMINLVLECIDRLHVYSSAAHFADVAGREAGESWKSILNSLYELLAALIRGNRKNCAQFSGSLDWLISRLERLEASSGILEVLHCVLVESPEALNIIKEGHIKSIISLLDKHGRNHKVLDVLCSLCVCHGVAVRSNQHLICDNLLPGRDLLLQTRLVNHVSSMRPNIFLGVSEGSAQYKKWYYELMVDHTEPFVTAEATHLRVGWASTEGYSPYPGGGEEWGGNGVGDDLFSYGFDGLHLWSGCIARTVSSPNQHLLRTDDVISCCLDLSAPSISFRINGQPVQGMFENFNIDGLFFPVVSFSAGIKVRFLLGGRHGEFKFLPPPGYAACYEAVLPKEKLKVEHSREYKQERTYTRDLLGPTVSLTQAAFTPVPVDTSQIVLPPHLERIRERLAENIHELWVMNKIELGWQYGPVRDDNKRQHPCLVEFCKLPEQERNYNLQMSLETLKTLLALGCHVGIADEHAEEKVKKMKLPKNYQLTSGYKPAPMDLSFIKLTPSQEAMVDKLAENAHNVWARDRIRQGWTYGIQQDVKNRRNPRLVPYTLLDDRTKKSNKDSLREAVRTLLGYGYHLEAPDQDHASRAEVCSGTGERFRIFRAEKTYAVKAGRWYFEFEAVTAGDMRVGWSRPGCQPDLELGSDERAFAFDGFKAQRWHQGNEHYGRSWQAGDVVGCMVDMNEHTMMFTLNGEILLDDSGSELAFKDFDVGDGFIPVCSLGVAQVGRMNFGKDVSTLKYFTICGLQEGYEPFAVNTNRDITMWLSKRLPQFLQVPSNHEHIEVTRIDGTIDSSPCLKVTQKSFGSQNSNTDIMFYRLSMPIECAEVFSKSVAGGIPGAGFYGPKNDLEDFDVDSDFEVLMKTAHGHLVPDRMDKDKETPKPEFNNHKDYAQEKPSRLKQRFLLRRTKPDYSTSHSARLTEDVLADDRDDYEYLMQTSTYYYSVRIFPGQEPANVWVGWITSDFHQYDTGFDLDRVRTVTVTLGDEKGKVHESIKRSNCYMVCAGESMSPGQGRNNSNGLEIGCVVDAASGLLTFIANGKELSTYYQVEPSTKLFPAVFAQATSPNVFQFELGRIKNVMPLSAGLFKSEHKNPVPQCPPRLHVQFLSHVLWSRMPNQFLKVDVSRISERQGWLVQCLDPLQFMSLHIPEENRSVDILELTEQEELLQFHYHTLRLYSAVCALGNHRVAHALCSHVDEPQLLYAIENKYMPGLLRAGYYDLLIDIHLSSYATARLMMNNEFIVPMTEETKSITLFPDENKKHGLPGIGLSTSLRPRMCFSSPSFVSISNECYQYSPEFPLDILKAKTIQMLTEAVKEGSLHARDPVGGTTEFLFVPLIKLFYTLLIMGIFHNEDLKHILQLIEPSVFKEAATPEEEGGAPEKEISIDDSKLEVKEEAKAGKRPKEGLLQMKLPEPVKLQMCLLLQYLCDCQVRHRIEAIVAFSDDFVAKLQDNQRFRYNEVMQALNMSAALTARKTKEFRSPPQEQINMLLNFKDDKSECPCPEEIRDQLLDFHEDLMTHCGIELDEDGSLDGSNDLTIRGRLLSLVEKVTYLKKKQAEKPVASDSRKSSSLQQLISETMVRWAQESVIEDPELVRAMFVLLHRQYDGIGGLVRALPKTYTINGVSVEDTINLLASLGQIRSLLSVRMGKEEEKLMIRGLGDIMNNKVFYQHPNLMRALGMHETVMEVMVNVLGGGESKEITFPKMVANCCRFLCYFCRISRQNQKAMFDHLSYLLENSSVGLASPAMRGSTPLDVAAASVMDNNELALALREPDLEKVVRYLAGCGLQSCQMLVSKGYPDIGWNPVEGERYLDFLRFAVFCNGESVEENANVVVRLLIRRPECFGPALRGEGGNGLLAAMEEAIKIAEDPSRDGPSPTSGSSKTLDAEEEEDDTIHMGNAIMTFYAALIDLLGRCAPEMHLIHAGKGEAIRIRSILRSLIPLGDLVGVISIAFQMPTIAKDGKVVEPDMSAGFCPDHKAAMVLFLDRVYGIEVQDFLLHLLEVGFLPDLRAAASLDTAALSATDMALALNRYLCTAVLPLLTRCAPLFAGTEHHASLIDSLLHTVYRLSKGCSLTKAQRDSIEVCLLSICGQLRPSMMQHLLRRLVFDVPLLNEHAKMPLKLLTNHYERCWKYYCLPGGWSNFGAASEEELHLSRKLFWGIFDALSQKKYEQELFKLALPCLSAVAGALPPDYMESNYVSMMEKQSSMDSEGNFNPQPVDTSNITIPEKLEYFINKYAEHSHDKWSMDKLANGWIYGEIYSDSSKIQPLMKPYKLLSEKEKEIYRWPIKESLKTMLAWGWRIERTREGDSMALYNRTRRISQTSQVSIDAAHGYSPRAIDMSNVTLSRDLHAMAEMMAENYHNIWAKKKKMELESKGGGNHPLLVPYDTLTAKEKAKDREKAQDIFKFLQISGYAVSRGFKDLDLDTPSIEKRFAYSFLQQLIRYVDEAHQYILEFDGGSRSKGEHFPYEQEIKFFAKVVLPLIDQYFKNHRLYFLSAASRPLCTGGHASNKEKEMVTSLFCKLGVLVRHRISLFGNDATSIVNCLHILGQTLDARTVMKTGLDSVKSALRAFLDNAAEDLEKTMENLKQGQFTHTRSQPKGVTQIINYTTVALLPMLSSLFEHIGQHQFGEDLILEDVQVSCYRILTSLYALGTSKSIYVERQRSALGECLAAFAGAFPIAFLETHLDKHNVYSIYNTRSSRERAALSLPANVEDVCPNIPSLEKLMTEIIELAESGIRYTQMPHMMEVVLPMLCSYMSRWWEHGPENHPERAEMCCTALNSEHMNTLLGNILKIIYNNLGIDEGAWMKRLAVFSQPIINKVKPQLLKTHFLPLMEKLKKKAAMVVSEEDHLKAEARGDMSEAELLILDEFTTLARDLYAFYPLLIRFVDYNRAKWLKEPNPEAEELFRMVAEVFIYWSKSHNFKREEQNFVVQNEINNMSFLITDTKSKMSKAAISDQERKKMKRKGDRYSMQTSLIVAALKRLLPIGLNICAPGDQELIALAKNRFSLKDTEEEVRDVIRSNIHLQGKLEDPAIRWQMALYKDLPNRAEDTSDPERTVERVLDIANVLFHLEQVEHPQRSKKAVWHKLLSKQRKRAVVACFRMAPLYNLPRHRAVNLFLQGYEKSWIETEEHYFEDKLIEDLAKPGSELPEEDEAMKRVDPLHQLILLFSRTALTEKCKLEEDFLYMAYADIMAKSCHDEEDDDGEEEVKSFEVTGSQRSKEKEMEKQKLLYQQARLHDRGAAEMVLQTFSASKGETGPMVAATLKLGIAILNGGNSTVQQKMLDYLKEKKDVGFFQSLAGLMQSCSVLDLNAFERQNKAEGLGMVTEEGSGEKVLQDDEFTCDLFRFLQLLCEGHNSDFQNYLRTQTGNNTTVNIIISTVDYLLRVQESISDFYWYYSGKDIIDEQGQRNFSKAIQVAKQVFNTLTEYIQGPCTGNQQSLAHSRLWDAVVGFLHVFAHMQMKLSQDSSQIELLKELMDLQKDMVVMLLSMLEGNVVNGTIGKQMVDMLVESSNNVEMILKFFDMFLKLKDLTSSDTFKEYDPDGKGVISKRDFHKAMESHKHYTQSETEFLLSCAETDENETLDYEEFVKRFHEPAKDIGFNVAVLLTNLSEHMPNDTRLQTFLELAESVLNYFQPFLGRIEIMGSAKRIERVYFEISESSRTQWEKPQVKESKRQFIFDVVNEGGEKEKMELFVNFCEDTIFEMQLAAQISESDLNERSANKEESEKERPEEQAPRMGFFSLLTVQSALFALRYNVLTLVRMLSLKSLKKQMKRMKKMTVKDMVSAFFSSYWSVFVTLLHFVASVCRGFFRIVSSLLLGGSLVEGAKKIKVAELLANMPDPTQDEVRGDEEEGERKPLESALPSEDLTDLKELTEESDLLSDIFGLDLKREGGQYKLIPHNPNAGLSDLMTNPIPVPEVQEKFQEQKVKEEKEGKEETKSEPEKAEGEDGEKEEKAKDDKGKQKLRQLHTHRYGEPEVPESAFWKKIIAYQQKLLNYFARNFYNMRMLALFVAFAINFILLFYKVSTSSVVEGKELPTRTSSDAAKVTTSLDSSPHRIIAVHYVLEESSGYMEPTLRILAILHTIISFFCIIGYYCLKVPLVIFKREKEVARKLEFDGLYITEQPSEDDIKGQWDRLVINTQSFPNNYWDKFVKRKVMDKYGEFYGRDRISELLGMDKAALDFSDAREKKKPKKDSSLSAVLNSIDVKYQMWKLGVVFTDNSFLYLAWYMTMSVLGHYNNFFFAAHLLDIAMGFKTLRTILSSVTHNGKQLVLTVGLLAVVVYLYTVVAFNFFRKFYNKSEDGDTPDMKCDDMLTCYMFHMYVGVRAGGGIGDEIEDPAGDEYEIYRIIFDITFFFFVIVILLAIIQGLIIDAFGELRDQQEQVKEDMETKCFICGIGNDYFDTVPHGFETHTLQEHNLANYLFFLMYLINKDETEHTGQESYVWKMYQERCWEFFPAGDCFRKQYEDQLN

Consider “non-fluorescent wild type FKBP12.6 (from UniProt P68106 1-108) (natural protein)”, for which the decrease in Ca spark amplitude in permeabilized rat myocytes worked out at 15% and the decrease in resting Ca spark frequency (CaSpF) in permeabilized rat myocytes came out at 24%.
